We go through two molecules from PMC6140506 (Proceedings of the National Academy of Sciences of the …, 2018).

Holding throughout (experiment): SPR
Assay [1] deals with Phl p 7 wild-type (Timothy grass, UniProt O82040).
Assay [2] deals with T1, Ole e 3 (Olea europaea (common olive), UniProt O81092).
Assay [3] deals with Bet v 4 (UniProt Q39419).
Assay [4] has as its target T1, Ole e 3. The source holds these as a separate data set.
Assay [5] addresses Bet v 4 (UniProt Q39419). This is another data set of the same source.

Where two headings read alike, the source gives them in different places.

Bet v 4, sequence (Q39419 whole entry): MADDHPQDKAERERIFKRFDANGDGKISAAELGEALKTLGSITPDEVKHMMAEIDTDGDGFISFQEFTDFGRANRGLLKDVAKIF
Phl p 7 wild-type, sequence (O82040 whole entry): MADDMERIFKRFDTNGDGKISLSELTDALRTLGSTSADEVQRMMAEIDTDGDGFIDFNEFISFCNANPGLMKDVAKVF

B1: 102.1F10 IgE (antibody, V domains shown)
VH: QVQLVQSGAEVRNPGASVKVSCKASGYTFTSYAIHWVRQAPGHRLEWVGRINTDNGNTKYSQKFHGRVALSRDTSASTTYMDLSSLNSEDTAVYYCARAFYYSSGVMFDSWGQGALVTVSS
VL: QSALTQPPSVSGAPGQRVSISCTGGSSNFGAGYDVHWYQQLPATAPKLLIYGNNNRPSGVPDRFSGSKSGTSASLAITGLQAEDEGDYFCQSFDTSLSGWIFGGGTKLTVL
Consider B1, for which the Kd in assay [1] turned out to be 0.17 nM. The binding result in assay [2] is “binds”. Also, the “fold weaker binding than Phl p 7” value in assay [3] came to 1000 fold.

B2: 102.1F10 Fab (Fab, V domains shown)
VH: QVQLVQSGAEVRNPGASVKVSCKASGYTFTSYAIHWVRQAPGHRLEWVGRINTDNGNTKYSQKFHGRVALSRDTSASTTYMDLSSLNSEDTAVYYCARAFYYSSGVMFDSWGQGALVTVSS
VL: QSALTQPPSVSGAPGQRVSISCTGGSSNFGAGYDVHWYQQLPATAPKLLIYGNNNRPSGVPDRFSGSKSGTSASLAITGLQAEDEGDYFCQSFDTSLSGWIFGGGTKLTVL
In the case of B2, the binding result in assay [4] was “binds”. Also, the “fold weaker binding than Phl p 7” value in assay [5] is 1000 fold.
